Measurements as given in US20210301025A1 (published 2021).
Substitutions are numbered along the chain they refer to. Names and notes keep the numbering of the source.

B1: P114AR7P95-D3 (designed binder, not shown: small tags and cut ends)
chain: LPAPKNLVVSRVTEDSARLSWTAPDAAFDSFWIRYFEFLGSGEAIVLTVPGSERSYDLTGLKPGTEYVVNIMGVKGGSISYPLSAIFTT
B2: P114AR5P75-E9 (designed binder, not shown: small tags and cut ends)
chain: B1 chain with W32F, F36D, G40R, V68W, N70T, M72L, S78L, I79V, Y81T
B3: P114AR7P92-F3 (designed binder, not shown: small tags and cut ends)
chain: B1 chain with V68I, Y81H
B4: P114AR7P92-F6 (designed binder, not shown: small tags and cut ends)
chain: B1 chain with M72L, S78G, I79L, Y81V
B5: P114AR7P92-G8 (designed binder, not shown: small tags and cut ends)
chain: B1 chain with W32V, N70Q, M72L, S78Y, Y81I
B6: P114AR7P92-H5 (designed binder, not shown: small tags and cut ends)
chain: B1 chain with F36L, G40L, S41G, N70Q, S78T, I79V, Y81P
B7: P114AR7P93-D11 (designed binder, not shown: small tags and cut ends)
chain: B1 chain with N70G, M72N, S78Y
B8: P114AR7P93-G8 (designed binder, not shown: small tags and cut ends)
chain: B1 chain with G60D, V68G, N70T, M72N, S78R, I79V, Y81T
B9: P114AR7P93-H9 (designed binder, not shown: small tags and cut ends)
chain: B1 chain with N70Q, M72I, S78H, Y81L
B10: P114AR7P94-A3 (designed binder, not shown: small tags and cut ends)
chain: B1 chain with S78K, Y81P
B11: P114AR7P94-E5 (designed binder, not shown: small tags and cut ends)
chain: B1 chain with V68A, S78R, I79V, Y81V
B12: P114AR7P95-B9 (designed binder, not shown: small tags and cut ends)
chain: B1 chain with N70Q, M72L, Y81V
B13: P114AR7P95-D4 (designed binder, not shown: small tags and cut ends)
chain: B1 chain with N70Q, M72L, S78Y, Y81I
B14: P114AR7P95-E3 (designed binder, not shown: small tags and cut ends)
chain: B1 chain with N70Q, S78T, I79V, Y81P
B15: P114AR7P95-F10 (designed binder, not shown: small tags and cut ends)
chain: B1 chain with L39T, G40T, S41A, Y81P
B16: P114AR7P95-G7 (designed binder, not shown: small tags and cut ends)
chain: B1 chain with F38L, G40S, S41T, Y81P
B17: P114AR7P95-H8 (designed binder, not shown: small tags and cut ends)
chain: B1 chain with L39V, G40S, S41K, Y81P
B18: P54AR4-83v2 T81C, NEM conjugate (designed binder, not shown: small tags and cut ends)
chain: LPAPKNLVVSEVTEDSARLSWDDPWAFYESFLIQYQESEKVGEAIVLTVPGSERSYDLTGLKPGTEYTVSIYGVHNVYKDCNMRGLPLSAIFTT
modifications: N-ethyl maleimide (NEM) on Cys 81
B19: P54AR4-83v2 T93C, NEM conjugate (designed binder, not shown: small tags and cut ends)
chain: B18 chain with C81T, T93C
modifications: N-ethyl maleimide (NEM) on Cys 93
B20: P54AR4-83v2 V8C, NEM conjugate (designed binder, not shown: small tags and cut ends)
chain: B18 chain with V8C, C81T
modifications: N-ethyl maleimide (NEM) on Cys 8
B21: P54AR4-83v2 V9C, NEM conjugate (designed binder, not shown: small tags and cut ends)
chain: B18 chain with V9C, C81T
modifications: N-ethyl maleimide (NEM) on Cys 9
B22: P54AR4-83v2 V12C, NEM conjugate (designed binder, not shown: small tags and cut ends)
chain: B18 chain with V12C, C81T
modifications: N-ethyl maleimide (NEM) on Cys 12
B23: P54AR4-83v2 V41C, NEM conjugate (designed binder, not shown: small tags and cut ends)
chain: B18 chain with V41C, C81T
modifications: N-ethyl maleimide (NEM) on Cys 41
B24: P54AR4-83v2 V46C, NEM conjugate (designed binder, not shown: small tags and cut ends)
chain: B18 chain with V46C, C81T
modifications: N-ethyl maleimide (NEM) on Cys 46
B25: P54AR4-83v2 V49C, NEM conjugate (designed binder, not shown: small tags and cut ends)
chain: B18 chain with V49C, C81T
modifications: N-ethyl maleimide (NEM) on Cys 49
B26: P54AR4-83v2 V74C, NEM conjugate (designed binder, not shown: small tags and cut ends)
chain: B18 chain with V74C, C81T
modifications: N-ethyl maleimide (NEM) on Cys 74
B27: P54AR4-83v2 V77C, NEM conjugate (designed binder, not shown: small tags and cut ends)
chain: B18 chain with V77C, C81T
modifications: N-ethyl maleimide (NEM) on Cys 77
B28: P54AR4-83v2 W25C, NEM conjugate (designed binder, not shown: small tags and cut ends)
chain: B18 chain with W25C, C81T
modifications: N-ethyl maleimide (NEM) on Cys 25
B29: P54AR4-83v2 Y28C, NEM conjugate (designed binder, not shown: small tags and cut ends)
chain: B18 chain with Y28C, C81T
modifications: N-ethyl maleimide (NEM) on Cys 28
B30: P54AR4-83v2 Y72C, NEM conjugate (designed binder, not shown: small tags and cut ends)
chain: B18 chain with Y72C, C81T
modifications: N-ethyl maleimide (NEM) on Cys 72
B31: P54AR4-83v2 Y78C, NEM conjugate (designed binder, not shown: small tags and cut ends)
chain: B18 chain with Y78C, C81T
modifications: N-ethyl maleimide (NEM) on Cys 78

Tests used:
[1] = target: T1, recombinant c-Met extracellular domain (human, UniProt P08581 16-932); experiment: SPR kinetic analysis as in Example 2
T1 construct: Construct used for SPR is not described further (may be the Fc chimera, as the protocol captures on anti-human Fc)

[2] = target: T2, human c-Met on cells (NCI-H441, NCI-H292, U87-MG) (human, UniProt P08581 25-1390); experiment: cell-based or functional assay
[3] = target: T3, Recombinant human c-Met Fc chimera (human, UniProt P08581 16-932); experiment: competition with biotinylated HGF on plate-coated c-Met-Fc
T3 construct: whole c-Met entry named; also called c-Met-Fc fusion protein

[4] = target: T2, human c-Met on cells (NCI-H441, …); experiment: NCI-H441 cell binding, anti-His fluorescence
Method: Purified FN3 domains (50 μL/well; 0 to 1000 nM) were added to the cells for 1 hour at 4° C. in duplicate plates. Supernatant was removed and cells were washed three times with FACS stain buffer (150 μL/well, BD Biosciences, cat #554657). Cells were incubated with biotinylated-anti HIS antibody (diluted 1:160 in FACS stain buffer, 50 μL/well, R&D Systems, cat # BAM050) for 30 minutes at 4° C. Cells were washed three times with FACS stain buffer (150 μL/well), after which wells were incubated with anti mouse IgG1-Alexa 488 conjugated antibody (diluted 1:80 in FACS stain buffer, 50 μL/well, Life Technologies, cat # A21121) for 30 minutes at 4° C. Cells were washed three times with FACS stain buffer (150 μL/well) and left in FACS stain buffer (50 μL/well). Total fluorescence was determined using an Acumen eX3 reader. Data were plotted as raw fluorescence signal against the logarithm of the FN3 domain molar concentration and fitted to a sigmoidal dose-response curve with variable slope using GraphPad Prism 4 (GraphPad Software) to calculate EC₅₀ values.

[5] = target: T4, EGFR (form used in the assay not stated) (human, UniProt P00533 25-645, limits assumed); experiment: ELISA, NEM conjugate, 10 nM
[6] = target: T4, EGFR (form used in the assay not stated); experiment: ELISA, NEM conjugate, 500 nM
[7] = target: T4, EGFR (form used in the assay not stated); experiment: ELISA, NEM conjugate, 100 nM

Row | Binder | Kd [1] [nM] | pMet inhibition in H441 cells IC50 [2] | IC50 [3] [nM] | Inhibition of proliferation of U87-MG cells IC50 [2] [nM] | EC50 [4] [nM] | binding relative to P54AR4-83v2 parent [5] [ratio] | binding relative to P54AR4-83v2 parent [6] [ratio] | binding relative to P54AR4-83v2 parent [7] [ratio]
1 | B1 | 0.3 | 4.6 nM | 0.2 |  |  |  |  | 
2 | B2 | 45.8 | 1.42 µM | 51.9 | 1190 |  |  |  | 
3 | B3 | 0.4 | 8.3 nM | 0.2 | 2.7 |  |  |  | 
4 | B4 | 3.1 | 165 nM | 2.2 | 350 | 4.9 |  |  | 
5 | B5 | 1 | 155 nM | 1.6 | 124 | 5.9 |  |  | 
6 | B6 | 11.6 | 766 nM |  | 672 | 22 |  |  | 
7 | B7 |  | 16 nM |  | 14.4 | 2.3 |  |  | 
8 | B8 | 6.9 | 460 nM | 1 | 104 | 3.8 |  |  | 
9 | B9 | 3.3 | 288 nM | 2.9 | 270 | 12.9 |  |  | 
10 | B10 | 0.4 | 5 nM | 0.2 | 9.3 | 1.4 |  |  | 
11 | B11 | 4.2 | 124 nM | 0.7 | 196 | 3.4 |  |  | 
12 | B12 |  | 9.8 nM | 0.3 | 17.4 |  |  |  | 
13 | B13 | 0.4 | 19.5 nM |  | 19.4 | 1.4 |  |  | 
14 | B14 |  | 205 nM |  | 209 | 3.2 |  |  | 
15 | B15 | 4.2 | 188 nM | 1.4 | 130 | 4.4 |  |  | 
16 | B16 | 20 | 659 nM |  | 692 | 11.3 |  |  | 

Row | Binder | Kd [1] [nM] | pMet inhibition in H441 cells IC50 [2] | IC50 [3] [nM] | Inhibition of proliferation of U87-MG cells IC50 [2] [nM] | EC50 [4] [nM] | binding relative to P54AR4-83v2 parent [5] [ratio] | binding relative to P54AR4-83v2 parent [6] [ratio] | binding relative to P54AR4-83v2 parent [7] [ratio]
17 | B17 | 3.7 | 210 nM |  | 281 | 4.1 |  |  | 
18 | B18 |  |  |  |  |  | 0.5 | 1.02 | 0.9
19 | B19 |  |  |  |  |  | 0.96 | 1.04 | 1.05
20 | B20 |  |  |  |  |  | 0.96 | 0.9 | 1.03
21 | B21 |  |  |  |  |  | 0.94 | 0.93 | 1.03
22 | B22 |  |  |  |  |  | 0.87 | 0.93 | 1.06
23 | B23 |  |  |  |  |  | 0.92 | 0.95 | 0.99
24 | B24 |  |  |  |  |  | 0.61 | 0.9 | 1.01
25 | B25 |  |  |  |  |  | 0.96 | 0.98 | 1.01
26 | B26 |  |  |  |  |  | 0.76 | 0.95 | 1.01
27 | B27 |  |  |  |  |  | 0.03 | 0.03 | 0
28 | B28 |  |  |  |  |  | 0.38 | 0.7 | 0.64
29 | B29 |  |  |  |  |  | 0 | 0.09 | 0.01
30 | B30 |  |  |  |  |  | 0.93 | 0.93 | 1
31 | B31 |  |  |  |  |  | 0.31 | 0.68 | 0.63
